Experimental data as given in patent publication US20210300992A1 (Stanford University, published 2021).

B1: LIFR CBMI-Ig-like-CBMII wild-type Fc fusion homodimer (Fc fusion)
chain: QKKGAPHDLKCVTNNLQVWNCSWKAPSGTGRGTDYEVCIENRSRSCYQLEKTSIKIPALSHGDYEITINSLHDFGSSTSKFTLNEQNVSLIPDTPEILNLSADFSTSTLYLKWNDRGSVFPHRSNVIWEIKVLRKESMELVKLVTHNTTLNGKDTLHHWSWASDMPLECAIHFVEIRCYIDNLHFSGLEEWSDWSPVKNISWIPDSQTKVFPQDKVILVGSDITFCCVSQEKVLSALIGHTNCPLIHLDGENVAIKIRNISVSASSGTNVVFTTEDNIFGTVIFAGYPPDTPQQLNCETHDLKEIICSWNPGRVTALVGPRATSYTLVESFSGKYVRLKRAEAPTNESYQLLFQMLPNQEIYNFTLNAHNPLGRSQSTILVNITEKVYPHTPTSFKVKDINSTAVKLSWHLPGNFAKINFLCEIEIKKSNSVQEQRNVTIKGVENSSYLVALDKLNPYTLYTFRIRCSTETFWKWSKWSNKKQHLTTEAS
notes: Homodimer through the Fc; The engineered counterparts use a 3x GS linker and a human IgG1 Fc; also called LIFR-WT-Fc; LIFR WT Fc; not shown: linker and Fc domain
B2: LIFR CBMI-Ig-like-CBMII (VPRVVAID)-gp130 CBM (ELDME) heterodimeric Fc fusion (Fc fusion)
chain 1: QKKGAPHDLKCVTNNLQVWNCSWKAPSGTGRGTDYEVCIENRSRSCYQLEKTSIKIPALSHGDYEITINSLHDFGSSTSKFTLNEQNVSLIPDTPEILNLSADFSTSTLYLKWNDRGSVFPHRSNVIWEIKVLRKESMELVKLVTHNTTLNGKDTLHHWSWASDMPLECAIHFVEIRCYIDNLHFSGLEEWSDWSPVKNISWIPDSQTKVFPQDKVVPVGSDITFCCVSQEKVLSALIGRTDCPLIHLDGENVAIKVRNVSASASSGTNVVFITEDDIFGTVIFAGYPPDTPQQLNCETHDLKEIICSWNPGRVTALVGPRATSYTLVESFSGKYVRLKRAEAPTNESYQLLFQMLPNQEIYNFTLNAHNPLGRSQSTILVNITEKVYPHTPTSFKVKDINSTAVKLSWHLPGNFAKINFLCEIEIKKSNSVQEQRNVTIKGVENSSYLVALDKLNPYTLYTFRIRCSTETFWKWSKWSNKKQHLTTEASGSGSGSDKTHTCPPCPAPELLGGPSVFLFPPKPKDTLMISRTPEVTCVVVDVSHEDPQVKFNWYVDGVQVHNAKTKPREQQYNSTYRVVSVLTVLHQNWLDGKEYKCKVSNKALPAPIEKTISKAKGQPREPQVYTLPPSREEMTKNQVSLWCLVKGFYPSDIAVEWESNGQPENNYKTTPPVLDSDGSFFLYSKLTVDKSRWQQGNVFSCSVMHEALHNHYTQKSLSLSPGK
chain 2: LPPEKPKNLSCIVNEGKKMRCEWDRGRETHLETNFTLKSEWATHELADCKAKRDTPTSCTVDYSTVYFVNIEVWVEAENALGKVTSDHINFDPVDKVKPNPPHNLSVINSEELSSILKLTWTNPSIKSVMILKYNIQYRTKDASTWSQIPPEDTASTRSSFTVQDLKPFTEYVFRIRCMKEDGEGYWSDWSEEASGITYEDGSGSGSDKTHTCPPCPAPELLGGPSVFLFPPKPKDTLMISRTPEVTCVVVDVSHEDPQVKFNWYVDGVQVHNAKTKPREQQYNSTYRVVSVLTVLHQNWLDGKEYKCKVSNKALPAPIEKTISKAKGQPREPQVYTLPPSREEMTKNQVSLSCAVKGFYPSDIAVEWESNGQPENNYKTTPPVLDSDGSFFLVSKLTVDKSRWQQGNVFSCSVMHEALHNHYTQKSLSLSPGK
notes: also called LIFR-gp130 heterodimeric Fc; LIFR-gp130 Heterodimeric Fc (Eng.)

Key:
[1] = target: T1, human leukemia inhibitory factor (LIF), soluble (human, UniProt P15018 23-202); assay: KinExA with soluble human LIF; inhibitor titrated
T1 construct: also called human LIF; soluble human LIF
Procedure: Binding of the purified LIF inhibitors to soluble LIF was tested using KinExA. Shown in FIG. 10 are binding results for: (1) a homodimer having a WT LIFR CBMI-Ig-like-CBMII Fc fusion as each monomer; (2) a homodimer having LIFR […] Fc as each monomer;

[2] = target: T2, wild-type human LIFR displayed on the surface of yeast (human, UniProt P42702 45-534, limits assumed); assay: yeast-displayed receptor, no LIF added, anti-Fc detection by flow cytometry
T2 construct: also called LIFR wild-type (WT); wild-type LIFR
T2 sequence: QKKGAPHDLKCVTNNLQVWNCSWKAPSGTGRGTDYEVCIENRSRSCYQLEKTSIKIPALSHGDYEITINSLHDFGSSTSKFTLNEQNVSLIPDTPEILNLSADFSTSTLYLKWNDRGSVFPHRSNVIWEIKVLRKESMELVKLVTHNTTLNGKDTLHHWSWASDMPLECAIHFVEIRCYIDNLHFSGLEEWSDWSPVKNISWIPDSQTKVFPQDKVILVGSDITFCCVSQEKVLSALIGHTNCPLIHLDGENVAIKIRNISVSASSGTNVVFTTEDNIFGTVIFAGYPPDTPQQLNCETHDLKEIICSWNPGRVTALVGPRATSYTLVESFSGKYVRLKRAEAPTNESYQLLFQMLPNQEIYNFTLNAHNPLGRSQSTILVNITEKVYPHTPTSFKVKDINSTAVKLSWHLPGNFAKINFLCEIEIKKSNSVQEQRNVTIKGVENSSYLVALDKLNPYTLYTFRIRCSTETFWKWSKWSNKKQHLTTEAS

[3] = target: T3, wild-type human gp130 CBM domain displayed on the surface of yeast (human, UniProt P40189 124-324); assay: as above
T3 construct: also called gp130 wild-type (WT); wild-type gp130
T3 chain: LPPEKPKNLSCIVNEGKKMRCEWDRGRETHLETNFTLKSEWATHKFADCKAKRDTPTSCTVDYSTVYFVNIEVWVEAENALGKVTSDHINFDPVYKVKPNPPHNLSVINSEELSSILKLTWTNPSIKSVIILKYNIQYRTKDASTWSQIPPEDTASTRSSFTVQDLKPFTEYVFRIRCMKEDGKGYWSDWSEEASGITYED

T1 sequence (P15018 23-202 limits assumed): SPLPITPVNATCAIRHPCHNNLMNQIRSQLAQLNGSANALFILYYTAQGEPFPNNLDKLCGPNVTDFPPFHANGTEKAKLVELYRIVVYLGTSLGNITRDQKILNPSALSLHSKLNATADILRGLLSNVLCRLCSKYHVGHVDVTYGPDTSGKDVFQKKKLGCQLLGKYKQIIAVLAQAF

Binder | EC50 (read off the curve) [1] | binding result [2] | binding result [3]
B1 | ~1 nM | – | –
B2 | – | no binding | no binding
